Measurements from doi:10.1101/2024.07.22.604500.

How the values were obtained:
[1] = target: H1.0–K63-Ub3 chromatosome (CH3) (UniProt P07305)
[2] = target: unmodified H1.0-containing chromatosome (CH0) (UniProt P07305)
[3] = target: H1.0–Ub chromatosome (CH1) (UniProt P07305)
[4] = target: H1.0–K63-Ub2 chromatosome (CH2) (UniProt P07305)

- H2A conversion in the in vitro ubiquitylation assay, 5 and 10 min (28% and 48%) [1]: 48%
- H2A conversion in the in vitro ubiquitylation assay, 5 and 10 min (3% and 5%) [2]: 5%
- H2A conversion in the in vitro ubiquitylation assay, 5 and 10 min (2% and 3%) [3]: 3%
- H2A conversion in the in vitro ubiquitylation assay, 5 and 10 min (13% and 25%) [4]: 25%
Substance: RNF168^1–193 (from UniProt Q8IYW5 1-193) (domain or fragment)
